Values of other authors as cited in paper PMC6116012.

Assays:
[1] = target: FEN1 (Homo sapiens) (UniProt P39748)
[2] = target: PAF15 extended PIP-box peptide PIP-box (Homo sapiens) (UniProt Q15004)
[3] = target: PAF15 (Homo sapiens) (UniProt Q15004)

UniProt P39748, sequence (P39748 whole entry): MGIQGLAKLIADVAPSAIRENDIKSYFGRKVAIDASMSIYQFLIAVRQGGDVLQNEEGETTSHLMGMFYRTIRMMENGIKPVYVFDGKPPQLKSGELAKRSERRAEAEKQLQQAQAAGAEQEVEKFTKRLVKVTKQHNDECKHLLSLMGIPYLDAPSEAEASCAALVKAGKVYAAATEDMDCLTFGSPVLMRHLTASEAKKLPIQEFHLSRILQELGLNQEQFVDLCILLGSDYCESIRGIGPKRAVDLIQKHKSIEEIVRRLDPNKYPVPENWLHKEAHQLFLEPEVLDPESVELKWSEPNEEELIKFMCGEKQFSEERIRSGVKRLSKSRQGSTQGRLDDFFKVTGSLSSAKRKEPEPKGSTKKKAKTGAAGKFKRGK

Kd [1]: 0.06 µM
Kd [2]: 5.6 µM
Kd [3]: 1.1 µM
Substance: PCNA (from UniProt P12004)
